The results in this text go back to article doi:10.1101/2022.12.23.521429v4.

In this series the test system is Nc1ncnc2c1ncn2[C@@H]1O[C@H](COP(=O)(O)OP(=O)(O)OP(=O)(O)O)[C@@H](O)[C@H]1O. In words: kinase activity assay. Type of series: biochemical, Homo sapiens. The conditions noted are these: co-substrate and buffer of the KM determination not told.

As a reminder, the Km is the substrate concentration at which the rate is half of its maximum. Turning to “DYRK1B kinase domain (78-442) (Homo sapiens)”, the Km was 105 µM.
